Source: US20250109187A1 (NOVAVAX, published 2025)

Assays:
[1] = target: T1, XBB.1.16.6 rS (SARS-CoV-2 variant XBB.1.16.6, UniProt P0DTC2 14-1273); assay: ELISA: rS coated, mAb titrated, anti-mouse HRP
[2] = target: T2, XBB.1.16 rS (SARS-CoV-2 variant XBB.1.16, UniProt P0DTC2 14-1273); assay: ELISA: rS coated, mAb titrated, anti-mouse HRP
[3] = target: T3, SARS-CoV-2 Omicron XBB.1.5 rS (SARS-CoV-2 variant XBB.1.5, UniProt P0DTC2 14-1273); assay: ELISA: rS coated, mAb titrated, anti-mouse HRP
T3 construct: also called XBB 1.5 rS glycoprotein; XBB.1.5 Spike trimer

[4] = target: T4, XBB.2.3 rS (SARS-CoV-2 variant XBB.2.3, UniProt P0DTC2 14-1273); assay: ELISA: rS coated, mAb titrated, anti-mouse HRP
[5] = target: T5, EG.5.1 rS (SARS-CoV-2 variant EG.5.1, UniProt P0DTC2 14-1273); assay: ELISA: rS coated, mAb titrated, anti-mouse HRP
[6] = target: T6, FL.1.5.1 rS (SARS-CoV-2 variant FL.1.5.1, UniProt P0DTC2 14-1273); assay: ELISA: rS coated, mAb titrated, anti-mouse HRP
[7] = target: T1, XBB.1.16.6 rS
[8] = target: T2, XBB.1.16 rS
[9] = target: T3, SARS-CoV-2 Omicron XBB.1.5 rS
[10] = target: T4, XBB.2.3 rS
[11] = target: T5, EG.5.1 rS
[12] = target: T6, FL.1.5.1 rS

Row | Binder | EC50 [1] [µg/mL] | EC50 [2] [µg/mL] | EC50 [3] [µg/mL] | EC50 [4] [µg/mL] | EC50 [5] [µg/mL] | EC50 [6] [µg/mL] | IC50 [7] [µg/mL] | IC50 [8] [µg/mL] | IC50 [9] [µg/mL] | IC50 [10] [µg/mL] | IC50 [11] [µg/mL] | IC50 [12] [µg/mL]
1 | NVX.62.12 (antibody, V domains shown, also called mAb NVX.62.12) VH: QVQLQQSGAELVRPGVSVKISCKGSGYTFTDYAMHWVKQSHAKSLEWIGVISTYSGDAYYNQKFKGKATVTVDKSSSTAYMELARLTSEDSAIYFCARNWDDYYAMDYWGQGTSVTVSS VL: QIILSQSPAILSASPGERVTMTCRATSSVSYMHWYRQKPGSSPQPWIYATSNLASGVPARFSGSGSGTSYSLTISRVEAEDAATYYCQQWSGNPWTFGGGTKLEIK | 0.063 | 0.044 | 0.056 | 0.067 | 0.029 | 0.021 | > 3 | > 3 | > 3 | > 3 | > 3 | > 3
2 | NVX.324.6 (antibody, V domains shown, also called mAb NVX.324.6) VH: EVQLQQSGPELGKPGTSMKISCKASGYSFTGYTMNWVKQSHGKNLEWIGLINPYNGGTSYNQKFKDKATLTVDKSSSTAYMELLSLTSEDSAVYYCVREHYYYDSGYGGYYAMDYWGQGTSVTVSS VL: QIVLSQSPAILSASPGDKVTMTCRASASVNYMYWYQQKPGSSPKPWIYATSNLASGVPARFSGSGSGTSYSLTISRVEAEDAAIYYCQQWSSNPYTFGGGTKLEIK | 0.021 | 0.027 | 0.03 | 0.028 | 0.018 | 0.014 | > 3 | > 3 | > 3 | > 3 | > 3 | > 3
